The target of assay [1] is T1, secreted human placental alkaline phosphatase (AP) (human, UniProt P05187 23-511).
T1 construct: Control probe, used as conditioned medium; also called AP control
The assay can be described thus: quantitative cell surface AP binding assay on transfected Cos cells.

For assay [2], the target named is T2, human IL-22R1, expressed alone on transfected cells (human, UniProt Q8N6P7 16-574).
T2 sequence: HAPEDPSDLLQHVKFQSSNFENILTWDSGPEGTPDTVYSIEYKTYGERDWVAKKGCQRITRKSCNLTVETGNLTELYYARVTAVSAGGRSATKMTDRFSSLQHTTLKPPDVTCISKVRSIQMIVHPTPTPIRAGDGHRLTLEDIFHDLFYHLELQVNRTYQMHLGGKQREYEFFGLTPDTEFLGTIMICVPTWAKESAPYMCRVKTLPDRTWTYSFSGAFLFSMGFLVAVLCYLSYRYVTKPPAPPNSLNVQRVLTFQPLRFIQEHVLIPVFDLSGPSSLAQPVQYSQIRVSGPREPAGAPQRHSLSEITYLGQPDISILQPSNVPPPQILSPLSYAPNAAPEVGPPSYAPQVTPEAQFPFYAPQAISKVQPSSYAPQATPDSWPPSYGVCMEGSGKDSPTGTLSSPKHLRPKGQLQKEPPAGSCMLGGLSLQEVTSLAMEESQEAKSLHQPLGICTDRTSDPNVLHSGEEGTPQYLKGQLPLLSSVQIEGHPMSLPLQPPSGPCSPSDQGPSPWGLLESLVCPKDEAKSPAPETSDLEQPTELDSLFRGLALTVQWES
Described as above.

In assay [3] the target is T3, human IL-20R1, expressed alone on transfected cells (human, UniProt Q9UHF4 30-553).
T3 sequence: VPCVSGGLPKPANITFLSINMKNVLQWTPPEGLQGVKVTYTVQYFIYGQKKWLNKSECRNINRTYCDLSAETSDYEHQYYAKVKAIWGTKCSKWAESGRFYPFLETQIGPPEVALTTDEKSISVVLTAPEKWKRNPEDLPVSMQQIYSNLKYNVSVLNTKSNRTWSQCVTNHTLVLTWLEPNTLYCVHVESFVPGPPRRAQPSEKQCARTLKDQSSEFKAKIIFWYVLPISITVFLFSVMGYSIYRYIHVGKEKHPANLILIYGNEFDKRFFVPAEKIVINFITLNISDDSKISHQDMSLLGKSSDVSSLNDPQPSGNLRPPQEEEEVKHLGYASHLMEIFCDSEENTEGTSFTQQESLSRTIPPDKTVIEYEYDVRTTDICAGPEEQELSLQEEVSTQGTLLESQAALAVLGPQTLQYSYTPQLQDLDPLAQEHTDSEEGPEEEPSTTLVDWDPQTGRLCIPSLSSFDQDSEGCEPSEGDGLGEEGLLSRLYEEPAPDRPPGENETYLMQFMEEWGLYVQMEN
The assay is described as above.

The target in assay [4] is T4, IL-20 receptor (IL-20R1/IL-20R2) heterodimeric receptor on co-transfected cells (human, UniProt Q6UXL0 30-311).
T4 construct: whole, on cells; Both subunits were co-transfected into Cos-E5, BHK or Ba/F3 cells
T4 sequence 1: T3 sequence
T4 sequence 2: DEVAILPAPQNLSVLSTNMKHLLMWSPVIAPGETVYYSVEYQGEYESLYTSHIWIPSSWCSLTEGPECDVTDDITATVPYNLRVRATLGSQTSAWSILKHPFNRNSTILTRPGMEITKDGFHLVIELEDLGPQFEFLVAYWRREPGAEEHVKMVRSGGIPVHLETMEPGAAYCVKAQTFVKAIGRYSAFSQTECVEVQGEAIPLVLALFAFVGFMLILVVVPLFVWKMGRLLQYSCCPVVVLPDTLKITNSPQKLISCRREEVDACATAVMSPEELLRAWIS
The assay can be described thus: in situ cell surface AP staining of transfected Cos cells. The text has this:
(§1) FIG. 3C illustrates cell surface staining assay for the IL-24 receptor binding. Cos-E5 cells transfected with either the IL-20R1, IL-22R1 and IL20R2 expression vector alone or in pairs were stained for the cell surface-bound IL-24-AP activity and viewed under a light microscope (20× magnification) without phase contrast.
(§2) Based on published data and database searches of GenBank (NCBI), only three R1 and two R2 types of the IL-10 family of receptor subunits can be identified. The three R1 subunits are IL-10R1, IL-20R1 and IL-22R1, whereas the two R2 subunits are IL-20R2 and IL-1OR2, the latter of which is also the second receptor subunit for IL-22. Thus, the IL-24 receptor could be a heterodimer of a combination of the known R1 and R2 receptors. […] The quantitative cell surface binding assays were carried out with Cos cells after transfecting plasmids over-expressing IL-10R2, IL-20R1, IL-22R1 and IL-20R2 individually or in all four R1/R2 combinations (FIG. 3B). […] Using AP staining assays, the quantitative IL-24-AP binding data was confirmed (FIG. 3C). Specific cell surface staining was detected with IL-24-AP when Cos cells were transiently transfected with […] (FIG. 3C).

Assay [5] concerns the target T5, IL-22R1/IL-20R2 heterodimeric receptor on co-transfected cells (human, UniProt Q6UXL0 30-311).
T5 construct: whole, on cells; Both subunits were co-transfected into Cos-E5, BHK or Ba/F3 cells; also called IL-24 receptor (IL-22R1/IL-20R2)
T5 sequence 1: T2 sequence
T5 sequence 2: T4 sequence 2
The description is as above.
Description: as §1, §2

Here are results for two molecules from patent publication US20030078381A1 (VANDERBILT UNIVERSITY, published 2003).

T1 sequence (P05187 23-511): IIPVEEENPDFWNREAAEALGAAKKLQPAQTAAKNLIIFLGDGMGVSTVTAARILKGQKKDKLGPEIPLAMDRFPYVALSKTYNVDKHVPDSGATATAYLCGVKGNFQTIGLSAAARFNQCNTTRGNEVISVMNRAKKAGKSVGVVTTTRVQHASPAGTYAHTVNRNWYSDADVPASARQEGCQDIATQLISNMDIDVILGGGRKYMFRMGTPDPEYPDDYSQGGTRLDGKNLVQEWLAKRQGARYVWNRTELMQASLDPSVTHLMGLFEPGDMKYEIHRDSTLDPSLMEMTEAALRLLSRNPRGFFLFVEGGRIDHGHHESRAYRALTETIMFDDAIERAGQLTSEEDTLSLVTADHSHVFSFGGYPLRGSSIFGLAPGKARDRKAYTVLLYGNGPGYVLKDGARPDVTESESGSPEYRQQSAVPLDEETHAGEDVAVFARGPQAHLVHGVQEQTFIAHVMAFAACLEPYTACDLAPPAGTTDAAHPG

B1: human IL-20R2, expressed alone on transfected cells (receptor, UniProt Q6UXL0 30-311, looked up)
chain: T4 sequence 2
notes: whole, on cells
Turning to B1, the binding result in assay [1] is listed as “no binding”.

B2: human IL-24-AP fusion protein (ligand, UniProt Q13007 52-206, looked up)
chain: QEFHFGPCQVKGVVPQKLWEAFWAVKDTMQAQDNITSARLLQQEVLQNVSDAESCYLVHTLLEFYLKTVFKNYHNRTVEVRTLKSFSTLANNFVLIVSQLQPSQENEMFSIRDSAHRRFLLFRRAFKQLDVEAALTKALGEVDILLTWMQKFYKL
notes: Used as conditioned medium; also called Mob-5-alkaline phosphatase fusion protein; not shown: secreted human placental alkaline phosphatase (AP)
Take B2: the binding result in assay [2] is “no binding”; in assay [3] it was “no binding”; in assay [4], “binds”; in assay [5] it was “binds”.
